Values of other authors in publication PMC5290461.

Molecular target: integrin beta1A cytoplasmic tail (Homo sapiens) (UniProt P05556)
Assay: NMR

UniProt P05556, sequence (P05556 752-798): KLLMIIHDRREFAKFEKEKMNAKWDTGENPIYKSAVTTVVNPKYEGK

Row | Substance | Kd [µM]
1 | talin1 F3 (from UniProt P26039) | 491
2 | talin2 F3 (from UniProt Q71LX4) | 652
